Reference: IntAct's records for PubMed 18626018

B1: CREB-regulated transcription coactivator 2 (Mus musculus), Q3U182 (parent)
chain: MATSGANGPGSATASASNPRKFSEKIALQKQRQAEETAAFEEVMMDIGSTRLQAQKLRLAYTRSSHYGGSLPNVNQIGCGLAEFQSPLHSPLDSSRSTRHHGLVERVQRDARRMVSPLRRYPRHIDSSPYSPAYLSPPPESGWRRMMPWGNLPAEKGQLFRLPSALNRTSSDSALHTSVMNPNPQDTYPGPTPPSVLPSRRGGGFLDGEMDAKVPAIEENVVDDKHLLKPWDAKKLSSSSSRPRSCEVPGINIFPSPDQPANVPVLPPAMNTGGSLPDLTNLHFPPPLPTPLDPEETVYPSLSGGNSTTNLTHTMTHLGISGGLGLGPSYDVPGLHSPLSHPSLQSSLSNPNLQASLSSPQPQLQGSHSHPSLPASSLAHHALPTTSLGHPSLSAPALSSSSSSSSTSSPVLSAPPYPASTPGASPRHRRVPLSPLSLPAGPADARRSQQQLPKQFSPTMSPTLSSITQGVPLDTSKLPTDQRLPPYPYSPPSLVIPTHPPTPKSLQQLPSQACLVQPSGGQPPGRQPHYGALYPPGSSGHGQQPYHRPINDFSLGNLEQFNMESPSTSLVLDPPAFSEGPGFLGSEGSMSGPQDPHVLNHQNLTHCSRHGSGPNIILTGDSSPGFSKEIAAALAGVPGFEVSASGLELGLGLEDELRMEPLGLEGLTMLSDPCALLPDPAVEDSFRSDRLQ

Assays:
[1] = variants of: B1; details: with 1433b_human YWHAB
[2] = variants of: B1; details: with mark2_human MARK2, Q7KZI7
mark2_human MARK2, Q7KZI7, sequence (Q7KZI7 whole entry): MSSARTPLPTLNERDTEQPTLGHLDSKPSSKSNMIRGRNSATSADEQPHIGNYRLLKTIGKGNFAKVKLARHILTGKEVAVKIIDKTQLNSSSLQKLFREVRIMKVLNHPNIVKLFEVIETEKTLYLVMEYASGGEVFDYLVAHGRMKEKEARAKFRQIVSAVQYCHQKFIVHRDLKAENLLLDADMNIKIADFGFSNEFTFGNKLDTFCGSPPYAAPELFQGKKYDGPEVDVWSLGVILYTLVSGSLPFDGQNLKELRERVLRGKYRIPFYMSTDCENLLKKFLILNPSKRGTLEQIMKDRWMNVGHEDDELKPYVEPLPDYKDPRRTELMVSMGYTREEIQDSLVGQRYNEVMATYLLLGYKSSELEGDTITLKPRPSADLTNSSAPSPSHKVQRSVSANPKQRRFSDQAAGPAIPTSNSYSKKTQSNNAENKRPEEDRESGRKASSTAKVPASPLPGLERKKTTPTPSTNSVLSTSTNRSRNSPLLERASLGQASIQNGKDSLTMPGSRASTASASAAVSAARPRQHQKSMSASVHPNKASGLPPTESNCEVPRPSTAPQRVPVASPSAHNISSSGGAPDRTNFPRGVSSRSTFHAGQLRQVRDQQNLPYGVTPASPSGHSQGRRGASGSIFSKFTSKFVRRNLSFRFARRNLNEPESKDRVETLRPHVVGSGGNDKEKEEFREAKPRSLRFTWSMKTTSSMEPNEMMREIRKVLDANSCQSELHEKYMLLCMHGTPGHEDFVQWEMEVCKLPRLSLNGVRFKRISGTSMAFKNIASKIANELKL

[3] = variants of: B1; details: with aapk1_human PRKAA1, Q13131
aapk1_human PRKAA1, Q13131, sequence (Q13131 whole entry, looked up): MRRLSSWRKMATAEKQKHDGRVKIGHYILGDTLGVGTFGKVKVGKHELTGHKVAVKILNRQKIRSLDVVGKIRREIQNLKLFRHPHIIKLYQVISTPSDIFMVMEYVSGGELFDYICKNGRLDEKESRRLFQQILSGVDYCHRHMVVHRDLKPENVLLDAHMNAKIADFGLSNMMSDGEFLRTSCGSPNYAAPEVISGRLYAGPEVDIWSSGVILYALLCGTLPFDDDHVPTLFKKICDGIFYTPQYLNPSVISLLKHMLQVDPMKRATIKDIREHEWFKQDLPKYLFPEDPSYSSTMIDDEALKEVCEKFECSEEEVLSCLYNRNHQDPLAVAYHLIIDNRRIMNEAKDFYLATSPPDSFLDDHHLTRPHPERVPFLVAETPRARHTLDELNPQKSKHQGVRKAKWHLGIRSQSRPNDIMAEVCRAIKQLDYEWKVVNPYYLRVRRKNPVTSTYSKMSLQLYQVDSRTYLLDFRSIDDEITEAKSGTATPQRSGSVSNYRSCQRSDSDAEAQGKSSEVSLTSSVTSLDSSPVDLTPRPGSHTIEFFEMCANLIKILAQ

[4] = variants of: B1; details: with mark3_human MARK3, P27448
mark3_human MARK3, P27448, sequence (P27448 whole entry, looked up): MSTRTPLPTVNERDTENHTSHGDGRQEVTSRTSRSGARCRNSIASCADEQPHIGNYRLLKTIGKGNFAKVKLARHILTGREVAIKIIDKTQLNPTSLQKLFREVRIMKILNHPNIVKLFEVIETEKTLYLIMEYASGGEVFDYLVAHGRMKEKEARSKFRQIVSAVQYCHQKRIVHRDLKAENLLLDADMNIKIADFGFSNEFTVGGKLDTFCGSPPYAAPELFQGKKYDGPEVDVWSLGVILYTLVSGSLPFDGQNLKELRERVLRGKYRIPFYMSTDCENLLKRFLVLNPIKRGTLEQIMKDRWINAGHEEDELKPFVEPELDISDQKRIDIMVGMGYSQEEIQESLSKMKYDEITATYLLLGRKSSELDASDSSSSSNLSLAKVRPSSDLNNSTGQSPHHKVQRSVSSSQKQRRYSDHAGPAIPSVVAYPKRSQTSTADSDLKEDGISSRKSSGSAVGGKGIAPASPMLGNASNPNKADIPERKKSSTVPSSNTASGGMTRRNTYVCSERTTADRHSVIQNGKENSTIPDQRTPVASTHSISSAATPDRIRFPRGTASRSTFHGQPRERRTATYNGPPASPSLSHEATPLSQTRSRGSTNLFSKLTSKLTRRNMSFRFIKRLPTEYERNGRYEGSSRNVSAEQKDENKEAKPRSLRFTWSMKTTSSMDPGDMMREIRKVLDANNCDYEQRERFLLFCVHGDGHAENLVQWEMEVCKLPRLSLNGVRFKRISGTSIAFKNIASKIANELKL

| Variant | effect of a mutation on the interaction [1] | effect of a mutation on the interaction [2] | effect of a mutation on the interaction [3] | effect of a mutation on the interaction [4] |
| --- | --- | --- | --- | --- |
| S171A | disrupting interaction | disrupting interaction | disrupting interaction | disrupting interaction |
| S171A;S275A | disrupting interaction |  |  |  |
| S275A |  | disrupting interaction | disrupting interaction | disrupting interaction |
